The values that follow are results of earlier work, collected in patent US11458170B2, “Pharmaceutical composition comprising erythrocytes encapsulating a PLP-dependent enzyme and, a non-phosphate PLP precursor” (ERYTECH PHARMA, priority 2014, dated 2022).

For series [1] the following is noted: in vivo.
Assay in series [2]: not given
This is another data set of the same source.

As to `Cc1ncc(COP(=O)(O)O)c(C=O)c1O` [PLP, pyridoxal phosphate], the “Plasma half-life of free PLP” value in series [1] is reported as “about 15 minutes”.

As to “rMETase: recombinant methioninase produced in Escherichia coli from the Pseudomonas putida gene (Sun et al.)”, the “Plasma activity of the enzyme” value (24 h after IV injection, immunodeficient mice, determined in vitro without adding PLP) is reported as “undetectable”. For the same molecule, the Half-life in mice (mice) was 2 h. Moreover, the “Treated animals developing anti-rMETase antibodies (IgG, IgM)” value in series [2] (macaques) is given as “four out of six”. In addition, the “Death after anaphylactic shock” value in series [2] (second IV injection 28 days after the first) was “death of one of the two animals”. In addition, in series [2] (second IV injection 28 days after the first, six monkeys), the “Anaphylactic shock after second injection” value is given as “in two monkeys an anaphylactic shock”.
